Experiment [1] addresses agonist MCC I-E^k complex (mouse) (UniProt G3UW40). The experiment can be described thus: cell-based or functional assay.
For experiment [2], the target named is antagonist MCC 99R I-E^k complex (mouse) (UniProt P04224). As to the kind of experiment: cell-based or functional assay.
Sequence of antagonist MCC 99R I-E^k complex (mouse) (P04224 26-216, one chain of several): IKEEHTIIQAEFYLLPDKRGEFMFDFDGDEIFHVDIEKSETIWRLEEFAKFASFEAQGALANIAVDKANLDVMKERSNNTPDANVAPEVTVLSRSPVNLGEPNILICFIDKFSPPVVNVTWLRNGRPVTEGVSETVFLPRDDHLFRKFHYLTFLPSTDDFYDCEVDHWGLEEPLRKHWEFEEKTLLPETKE

Consider 5C.C7 TCR, for which, in experiment [1], the half-maximal calcium response (EC50), control T cell blasts was determined as 5 peptides and the half-maximal calcium response (EC50), miR-181a T cell blasts was determined as 2 peptides. Also, the peak cytosolic calcium response, miR-181a T cell blasts in experiment [2] is above 2 fold.

The record behind these values is US20080200416A1.
